Measurements from US20120129778A1 (GlaxoSmithKline, published 2012).
Numbering of substitutions follows the chain as printed. Numbers in names are those of the source. One block for each binder: values may come before it.

Tests used:
[1] = target: T1, recombinant human TGF-β RII/Fc chimera protein (R&D systems, cat no. 341-BR) (human, UniProt P37173 23-166); assay: ELISA, plate coated with human TGF-β RII/Fc, dAb supernatant, anti-FLAG detection
T1 construct: extracellular domain; Bought protein, expressed in the mouse myeloma line NS0; also called hTGFb-RII/Fc; hTFGβ-RII-Fc; not shown: Fc region of human IgG1
T1 sequence (P37173 23-166, change not shown): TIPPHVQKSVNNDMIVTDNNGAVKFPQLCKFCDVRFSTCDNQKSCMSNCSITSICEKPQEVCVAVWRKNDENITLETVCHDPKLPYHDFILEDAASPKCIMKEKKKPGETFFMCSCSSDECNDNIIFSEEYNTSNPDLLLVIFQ
Procedure: dAb clones that bound human TGF-β RII/Fc were identified by an ELISA. 96-well MAXISORP™ immuno plates (Nunc, Denmark) were coated with human TGF-β RII/Fc overnight at 4° C. The wells were washed three times with PBST and then blocked with 1% TWEEN™ in PBS (1% TPBS) for 1 hour at room temperature. The block was removed and a 1:1 mixture of 1% TPBS and dAb supernatant was added for 1 hour at room temperature. The plate was washed with three times with PBST and the detection antibody (Monoclonal anti-FLAG M2-peroxidase antibody, Sigma-aldrich, UK) was added and incubated for 1 hour at room temperature. The plates were developed using a colourimetric substrate (SUREBLUE™ 1-component TMB Microwell Peroxidase solution, KPL, Maryland, USA) and the optical density (OD) measured at […], the OD₄₅₀ being proportional to the amount of bound detection antibody.

[2] = target: T1, recombinant human TGF-β RII/Fc chimera …; assay: SPR (BIACORE 3000), hTGFb-RII/Fc coupled to a CM5 chip, co-inject; injection 2 = mixture of DOM23h-437-6 (100 nM) and DOM23h-271-3 (500 nM) on a surface saturated with DOM23h-437-6
Procedure: (§1) The SPR experiments were performed on a BIACORE™ 3000 instrument (BIACORE™, GE […]®, Sweden). hTGFb-RII/Fc antigen at 50 ug/ml in 10 mM sodium acetate buffer, pH 4 (BIACORE™, GE […]®, Sweden) was coupled to a CM5 sensor chip (BIACORE™, GE […]®, Sweden), according to the manufacturer's instructions. Approximately 5500 RUs of antigen were coupled. A blank flow cell was used as a reference. Purified dAbs were diluted in HBS-EP buffer (BIACORE™, GE […]®, Sweden) and flowed over the antigen-coated and blank flow cells at a rate of 30 μl/minute using the co-inject command. The coinject command allows the injection of a second sample immediately after the first one. The first injection consisted of a single dAb and the second injection consisted of a mixture of the first dAb and a second dAb. All dAbs were used at concentrations high enough to bind the antigen surface with maximal capacity. If the maximal binding capacity of the antigen surface by the first dAb can be exceeded by injecting the mixture of the two dAbs, the second dAb is likely to […] a different binding site or epitope on the antigen. If no further binding is observed following the second injection, then the two dAbs are likely to compete for the same antigen binding site. […]

[3] = target: T1, recombinant human TGF-β RII/Fc chimera …; assay: SPR (BIACORE 3000), hTGFb-RII/Fc coupled to CM5 chip, 100 nM dAb co-injected with 100 nM DOM23h-437-9 (competitor)
Procedure: as §1

[4] = target: human TGF-β receptor type II on human cells (A549, SBE-bla HEK 293T) (human, UniProt P37173 23-567); assay: cell-based or functional assay
human TGF-β receptor type II on human cells (A549, SBE-bla HEK 293T), sequence (P37173 23-567): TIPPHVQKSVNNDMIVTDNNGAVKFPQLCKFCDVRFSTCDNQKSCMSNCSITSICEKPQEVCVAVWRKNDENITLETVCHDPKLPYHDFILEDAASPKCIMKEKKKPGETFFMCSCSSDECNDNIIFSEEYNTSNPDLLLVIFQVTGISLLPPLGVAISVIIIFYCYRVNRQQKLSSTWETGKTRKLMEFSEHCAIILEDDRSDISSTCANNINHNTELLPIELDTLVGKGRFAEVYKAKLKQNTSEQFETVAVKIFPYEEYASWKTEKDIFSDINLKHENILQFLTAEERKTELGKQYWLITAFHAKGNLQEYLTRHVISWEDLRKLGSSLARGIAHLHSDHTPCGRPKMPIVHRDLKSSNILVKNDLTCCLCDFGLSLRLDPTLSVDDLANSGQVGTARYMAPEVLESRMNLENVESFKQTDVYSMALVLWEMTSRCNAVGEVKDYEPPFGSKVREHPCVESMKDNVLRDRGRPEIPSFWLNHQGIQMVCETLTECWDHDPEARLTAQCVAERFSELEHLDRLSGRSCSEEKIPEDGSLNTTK

[5] = target: T1, recombinant human TGF-β RII/Fc chimera …; assay: SPR (BIACORE 3000), hTGFb-RII/Fc coupled to a CM5 chip, co-inject; injection 1 = DOM23h-437-9 alone at 100 nM
Procedure: as §1

[6] = target: T1, recombinant human TGF-β RII/Fc chimera …; assay: SPR (BIACORE 3000), hTGFb-RII/Fc coupled to a CM5 chip, co-inject; injection 1 = DOM23h-437-6 alone at 100 nM
Procedure: as §1

[7] = target: T1, recombinant human TGF-β RII/Fc chimera …; assay: SPR (BIACORE 3000), hTGFb-RII/Fc coupled to a CM5 chip, co-inject; injection 2 = mixture of DOM23h-437-6 (100 nM) and DOM23h-439-6 (500 nM) on a surface saturated with DOM23h-437-6
Procedure: as §1

binding result [6]: binds
B13: DOM23h-437-6 (other)
VH: EVQLLESGGGLVQPGGSLRLSCATSGFTFSDYRMWWVRQAPGKGLEWVSAIDSQGHTTYYADSVKGRFTISRDNSKNTLYLQMNSLRAEDTAVYYCAKYGGYFDYWGQGTLVTVSS
notes: VH dAb

binding result [1]: binds
B14: DOM23h-440 (other)
chain: B13 VH with T24A, S30T, Y32D, S53P, H56Q, T57H, Y99E, G100L, G101L, Y102S
notes: Naive dAb

binding result [1]: binds
B15: DOM23h-436 (other)
chain: EVQLLESGGGLVQPGGSLRLSCAASGFTFSDYKMGWVRQAPGKGLEWVSSIWPNGGLTYYADSVKGRFTISRDNSKNTLYLQMNSLRAEDTAVYYCAKDHMGFDYWGQGTLVTVSS
notes: Naive dAb

binding result [1]: binds
B16: DOM23h-435 (other)
chain: EVQLLESGGGLVQPGGSLRLTCAASGFTFTDDRMWWVRQAPGKGLEWVSAIDPQGQHTYYADSVKGRFTISRDNSKNTLYLQMNSLRAEDTAVYYCAKHNSSFDYWGQGTLVTVSS
notes: Naive dAb

binding result [1]: binds
B18: DOM23h-439 (other)
VH: EVQLLESGGGLVQPGGSLRLSCAASGFTFGTEQMWWVRQAPGKGLEWVSRIDSPGGRTYYADSVKGRFTISRDNSKNTLYLQMNSLRAEDTAVYYCAKRHAAGVSGTYFDYWGQGTLVTVSS
notes: VH dAb

binding result [3]: binds
B19: DOM23h-439-8 (other)
VH: B18 VH with Q13R, D62N, K65R
notes: VH dAb; also called DM23h-439-8; DOM23h-439-6 + D61N + K64R

Second part, the binder before the results:

B1: DOM23h-438 (other)
chain: EVQLLESGGGLVQPGGSLRLSCAASGFTFAQGDMWWVRQAPGKGLEWVSRIGMDGDKTYYADSVKGRFTISRDNSKNTLYLQMNSLRAEDTAVYYCAKGPSSTSPFDYWGQGTLVTVSS
notes: Naive dAb
binding result [1]: binds

B2: DOM23h-271-3 (other)
VH: EVQLLESGGGLVQPGGSLRLSCTASGFTFTEYRMWWVRQAPGKGLEWVSLIEPIGNRTYYADSVKGRFTISRDNSKNTLYLQMNSLRAEDTAVYYCAKQIPGHMWTANPRSDYWGQGTQVTVSS
notes: VH dAb
binding result [2]: binds

B3: DOM23h-271-12 (other)
VH: B2 VH with D62N, K65R
notes: VH dAb; also called DOM23h-271-3 + D61N + K64R
binding result [3]: binds

B4: DOM23h-271 (other)
VH: B2 VH with T23A, L50S, M104K, P109S, S111F, Q119L
notes: VH dAb
binding result [1]: binds

B5: DOM23h-262-6 (other)
VH: EVQLLESGGGLVQPGGSLRLSCAASGFTFFNYEMAWARQAPGKGLEWVSLISAEGTRTYYANSVKGRFTISRDNSKNTLYLQMNSLRAEDTAVYYCAKRRDASMGHTTRRFDHWGQGTLVTVSS
potency in the A549 IL-11 release assay relative to DOM23h-262 [4]: 54 fold

B6: DOM23h-262 (other)
VH: B5 VH with N62D, H113Y
notes: Domain antibody (dAb), human immunoglobulin single variable domain, soluble monomer
binding result [1]: binds

B7: DOM23h-262-10 (other)
VH: B5 VH with Q39R, E54D, K65R, H113Y, W114S
potency in the A549 IL-11 release assay relative to DOM23h-262 [4]: 540 fold

B8: DOM23h-348 (other)
chain: EVQLLESGGGLVQPGGSLRLSCAASGFTFSDYDMAWARQAPGKGLEWVSRISHSGYSTYYADSVKGRFTISRDNSKNTLYLQMNSLRAEDTAVYYCAKRSWDGVHAQFDYWGQGTLVTVSS
notes: Naive dAb
binding result [1]: binds

B9: DOM23h-437 (other)
VH: B13 VH with T24A
notes: VH dAb
binding result [1]: binds

B10: DOM23h-33 (other)
chain: B16 chain with T21S, T30S, D31Q, D32Y, D52A, Q54S, Q56D, H57N, N100R, S101T
notes: Naive dAb (immunoglobulin single variable domain)
binding result [1]: binds

B11: DOM23h-251 (other)
chain: EVQLLESGGGLVQPGGSLRLSCAASGFTFSDYDMWWVRQAPGKGLEWVSKITQKGDFTYYADSVKGRFTISRDNSKNTLYLQMNSLRAEDTAVYYCAKDATHFDYWGQGTLVTVSS
notes: Naive dAb
binding result [1]: binds

B12: DOM23h-437-9 (other)
VH: B13 VH with D62N, K65R
notes: VH dAb; also called DOM437-9
binding result [5]: binds

B17: DOM23h-439-6 (other)
VH: B18 VH with Q13R, K65R
notes: VH dAb, already contains K64R
binding result [7]: binds
